Source: the supplement of paper PMC10126150
± gives the standard deviation of the averaged measurements.

Test system: ATP
Assay: switch fluorescence ratio, 500 uM ATP over buffer (Cy3 cluster intensity, sum of 5 cycles each) (fold (ratio)); higher = stronger signal-on switching upon ATP binding; sequences stand for … in TCGTCGGCAGCGTCAGATGTGTATAAGAGACAGTTTTTTTTTTTTTTTTTTTTTTTTT…TC
Conditions: aptamer strand: ATP DNA aptamer (quencher-CACCTGGGGGAGTATTGCGGAGGAAGG + anchor), 100 nM annealed; ATP concentration: 500 uM
Method in brief: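 Exposure to 500 uM ATP lasted 15 min at 22 °C before imaging, and a selection-buffer image was taken beforehand, for Cy3-labelled switching-strand clusters on a modified Illumina MiSeq flow-cell annealed to 100 nM quencher-labelled ATP aptamer. Five buffer/ATP cycles were run with NaOH stripping and re-annealing between them. The fluorescence ratio per cluster is summed target-cycle over summed buffer-cycle Cy3 intensity, averaged per switch-domain sequence. Clusters outside 100-1000 RFU were excluded.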

Row | Sequence | switch fluorescence ratio
1 | TTTTTGGCCG | 1.06 ± 0.034
2 | TTTTTGGCTG | 0.9818 ± 0.0049
3 | TTTTTGGTTG | 1.01 ± 0.012
4 | TTTTTGGTTT | 1.02 ± 0.083
5 | TTTTTGTAGA | 1.01 ± 0.022
6 | TTTTTGTGTA | 0.969 ± 0.012
7 | TTTTTGTT | 0.99 ± 0.0068
8 | TTTTTGTTGG | 1 ± 0.034
9 | TTTTTGTTGT | 1.01 ± 0.052
10 | TTTTTGTTT | 0.988 ± 0.01
11 | TTTTTTAAAG | 0.99843 ± 0.00078
12 | TTTTTTACCT | 1.2 ± 0.015
13 | TTTTTTAGAA | 1.01 ± 0.025
14 | TTTTTTAGAC | 1.04 ± 0.08
15 | TTTTTTAGC | 1.02 ± 0.03
16 | TTTTTTAGCA | 1.02 ± 0.023
17 | TTTTTTAGGT | 0.99 ± 0.03
18 | TTTTTTAGTC | 1 ± 0.04
19 | TTTTTTAGTT | 0.992 ± 0.025
20 | TTTTTTATAG | 1 ± 0.038

Row | Sequence | switch fluorescence ratio
21 | TTTTTTATGT | 0.995 ± 0.029
22 | TTTTTTATT | 0.963 ± 0.013
23 | TTTTTTATTA | 0.986 ± 0.023
24 | TTTTTTCAAC | 1.15 ± 0.26
25 | TTTTTTCACT | 1.17 ± 0.34
26 | TTTTTTCATT | 1.02 ± 0.052
27 | TTTTTTCCCA | 1.01 ± 0.011
28 | TTTTTTCTAT | 0.996 ± 0.067
29 | TTTTTTGAAA | 1 ± 0.054
30 | TTTTTTGACC | 1.02 ± 0.044
31 | TTTTTTGACT | 0.995 ± 0.04
32 | TTTTTTGAGA | 0.975 ± 0.017
33 | TTTTTTGATT | 1.01 ± 0.02
34 | TTTTTTGGGT | 0.994 ± 0.024
35 | TTTTTTGTTC | 1.14 ± 0.3
36 | TTTTTTGTTG | 0.987 ± 0.029
37 | TTTTTTT | 0.9671 ± 0.0074
38 | TTTTTTTGTA | 1.01 ± 0.042
39 | TTTTTTTTGT | 1 ± 0.035
40 | TTTTTTTTT | 1.01 ± 0.021
